Laboratory results from patent US20050288492A1 (MEDICAL RESEARCH COUNCIL, published 2005).

T1: LexA DBD (made from the empty pBTM116 vector) (UniProt P0A7C2 1-202)
T1 construct: domain: LexA DBD; Yeast bait control
T1 sequence (looked up): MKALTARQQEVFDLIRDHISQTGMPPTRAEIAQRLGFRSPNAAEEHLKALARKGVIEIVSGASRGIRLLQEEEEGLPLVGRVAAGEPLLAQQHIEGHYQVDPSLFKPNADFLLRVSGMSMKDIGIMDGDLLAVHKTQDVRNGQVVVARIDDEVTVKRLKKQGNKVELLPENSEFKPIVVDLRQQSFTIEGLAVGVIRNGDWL


Assays:
[1] = biological target: HRASG12V expressed in NIH3T3 cells from pZIPneoSV(X)-HRASG12V (UniProt P01112 1-186, limits assumed); assay: cell-based or functional assay
[2] = biological target: T2, Recombinant activated HRAS (G12V; residues 1-166), GppNp-bound (human, UniProt P01112 1-166, loaded with 5'-guanylylimidodiphosphate (GppNp), a non-covalent nucleotide); assay: SPR (BIAcore 2000), Example 12
T2 construct: range 1-166; Antigen of the ELISA and BIAcore assays; also called HRASG12V-GppNp; RASG12V-GppNp

[3] = biological target: T2, Recombinant activated HRAS (G12V; …); assay: SPR (BIAcore 2000), purified His-tagged fragment on RAS antigen
[4] = biological target: T3, Gal4 DBD fused to HRASG12V (codons 1-166) (mammalian bait from pM1-HRASG12V) (UniProt P04386 1-147; P01112 1-166); assay: COS7 luciferase reporter with HRAS, KRAS or NRAS (data not shown)
T3 construct: domain: Gal4 DBD;range 1-166; Expressed inside COS7 or CHO cells; also called pM1-RASG12V; pM-RASG12V

[5] = biological target: T4, BSA (bovine, UniProt P02769); assay: ELISA; BSA coated at 30 mg/ml, purified His-tagged scFv, detection with HRP anti-polyhistidine, absorption 450-650 nm
T4 construct: coated on the ELISA plate at 30 mg/ml as control antigen; also called bovine serum albumin

[6] = biological target: β-galactosidase (non-relevant antigen bait in yeast) (UniProt P00722 1-1024 = β-galactosidase, limits assumed); assay: yeast two-hybrid, scFv-VP16 prey (data not shown)
[7] = biological target: T1, LexA DBD (made from the empty pBTM116 …); assay: yeast two-hybrid, scFv-VP16 prey (data not shown)
[8] = biological target: T2, Recombinant activated HRAS (G12V; …); assay: SPR, BIAcore 2000; HRASG12V-GppNp immobilised, purified scFv injected; BIAevaluation 2.1
[9] = biological target: T2, Recombinant activated HRAS (G12V; …); assay: SPR (BIAcore 2000), HRASG12V-GppNp immobilised (about 1500 RU), purified scFv as analyte, Example 4
[10] = biological target: T3, Gal4 DBD fused to HRASG12V (codons …); assay: cell-based or functional assay
[11] = biological target: T2, Recombinant activated HRAS (G12V; …); assay: SPR (BIAcore 2000), HRASG12V-GppNp immobilised (about 1500 RU), purified scFv as analyte, Example 4; Example 4, BIAcore, FIG. 6B

Binder	transforming activity in NIH3T3 cells, relative to HRASG12V alone [1]	Kd [2]	koff [3]	kon [3]	binding result [4]	binding result [5]	binding result [6]	binding result [7]	Kd [8]	koff [8]	kon [8]	Kd [9]	luciferase reporter activation in COS7 cells [10]	Kd [11]
IDab anti-RAS #6 (other) VH: EVQLLESGGGLVQPGGSLRLSCAASGFSFSTFSMNWVRQAPGKGLEWVSYISRTSKTIYYADSVKGRFTISRDNSKNTLYLQMNSLRAEDTAVYYCARGRFFDYWGQGTLVTVSS	< 10%													
IDab 33 (single VH domain of anti-RAS scFv33) (other, also called 33VH; VH from intrabody anti-RAS scFv33) VH: QVQLVEAGGGLVQPGGSLRLSCAASGFSFSTFSMNWVRQAPGKGLEWVSYISSSGRTIYYADSVKGRFTISRDNAKNSLYLQMNSLRDEDTAVYYCARGRFFDYWGQGTLVTVSS		~90 nM	0.0144 s⁻¹	12500 M⁻¹ s⁻¹										
IDab anti-RAS #12 (other) VH: EVQLLESGGGLVQPGGSLRLSCAASGFSFSVWAMSWVRQAPGKGLEWVSYISRTSKTIYYADSVKGRFTISRDNSKNTLYLQMNSLRAEDTAVYYCARGRFFDYWGQGTLVTVSS		~26 nM			binds									
anti-RAS scFv I21 (scFv, also called ICAb I21) scFv: EVQLLESGGGLVQPGGSLRLSCAASGFTFSSYAMSWVRQAPGKGLEWVSTISYGGSNTNYADSVKARFTISRDNSKNTLYLQMNSLRAEDTAVYYCAKGNNAFDYWGQGTLVTVSSGGGGSGGGGSGGGGSTDIQMTQSPSSLSASVGDRVTITCRASQSISSYLNWYQQKPGKAPKLLIYNASALQSGVPSRFSGSGSGTDFTLTISSLQPEDFATYYCQQYTSTPRTFGQGTKVEIKR						no binding (tested: 450 ng per well (legend))	no binding	no binding	1310 nM	0.0212 s⁻¹	16700 M⁻¹ s⁻¹	2160 nM		
IDab anti-RAS #3 (other, also called anti-RAS clone #3; clone 3) VH: QVQLVESGGGLVQPGGSLRLSCAASGFTFSSYAMHWVRQAPGKGLEWVSVISKLTHHTYYADSVKGRFTISRDNSKNTLYLQMNSLRAEDTAVYYCARGVQGYVHGLKGNWFDYWGQGTLVTVSS		~180 nM	0.00104 s⁻¹	5660 M⁻¹ s⁻¹										
anti-RAS scFv33 (scFv, ELISA and BIAcore: purified from periplasm with C-terminal His6-tag and myc-tag; Two-hybrid: fused to VP16 AD; Co-location: with nls and myc-tag; also called ICAb 33) scFv: QVQLVEAGGGLVQPGGSLRLSCAASGFSFSTFSMNWVRQAPGKGLEWVSYISSSGRTIYYADSVKGRFTISRDNAKNSLYLQMNSLRDEDTAVYYCARGRFFDYWGQGTLVTVSSGGGGSGGGGSGGGGSDIVMTQSPSFLSASVGDRVTITCRASQSISRYLNWYQQKPGKAPKLLIYAASSLQSGVPSRFSGSGSGTDFTLTISSLQPEDFAIYYCQQSYSTLLTFGGGTKLEIKR		~10 nM	0.00113 s⁻¹	176000 M⁻¹ s⁻¹		no binding (tested: 450 ng per well (legend))	no binding	no binding	9.97 nM	0.00113 s⁻¹	176000 M⁻¹ s⁻¹		> 10 fold	1.39 nM
anti-RAS scFv J48 (scFv, Same formats as scFv33 (His6/myc purified; VP16 fusion; nls-myc)) scFv: QVQLVEAGGGLVQPGGSLRLSCAASGFSFSYLYMNWVRQAPGKGLEWVSYISSSGRTIYYADSVKGRFTISRDNAKNSLYLQMNSLRDEDTAVYYCARGRFFDYWGQGTLVTVSSGGGGSGGGGSGGGGSDIVMTQSPSFLSASVGDRVTITCRASQSISRYLNWYQQKPGKAPKLLIYAASSLQSGVPSRFSGSGSGTDFTLTISSLQPEDFAIYYCQQSYSTLLTFGGGTKLEIKR						no binding (tested: 450 ng per well (legend))	no binding	no binding	2.6 nM	0.00482 s⁻¹	1.87e+06 M⁻¹ s⁻¹		> 10 fold	3.63 nM
